Source: US8227408B2, “Leptin as an anti-amyloidogenic biologic and methods for delaying the onset and reducing Alzheimer's disease-like pathology” (Neurotez, Inc., priority 2005, dated 2012)

Test system: SY5Y cells
Assay: 125I-Aβ uptake by SY5Y cells (apoE-dependent)
Format: cell-based, human
Procedure: Preparation of ApoE and binding with ^125I-Aβ. ApoE was isolated from the conditioned media of human embryonic kidney (HEK-293) cells stably-transfected with human apoE (having the ε3 allele or the ε4 allele) cDNA (Tezapsidis et al., FASEB J. 17:1322-1324 (2003)). These preparations, while usually poor in lipid, are fully functional for uptake experiments. ApoE then was pre-incubated with ^125I-Aβ overnight at 37° C. (Aβ/ApoE: 1/50 w/w) as described (Tezapsidis et al., FASEB J. 17:1322-1324 (2003)).
Aβ-uptake by SY5Y cells. Human ^125I-Aβ (iodinated at Tyr-10, Amersham Biosciences, IM 294) uptake was measured following addition of 0.1 nM ^125I-Aβ40 (SEQ ID NO: 4) to confluent SY5Y cells (60,000 cpm/ml) in the presence or absence of 100 ng/ml or 400 ng/ml leptin also included in a 24 h pre-incubation period. ^125I-Aβ was either added alone or was previously incubated with apoε3. In controls, Receptor Associated Protein (“RAP”, 1 μM) was added together with Aβ or the Aβ/apoE complex. RAP is an antagonist of a number of lipoprotein receptors (LaDu et al., Neurochem Int. 39:427-34 (2001)). After 24 h, the media were collected and subjected to scintillation counting for γ-Iradiation (Kang et al., 2000. J Clin Invest. 106:1159-66 (2000)). The amount of radioactivity was measured in both the trichloroacetic acid (10%) TCA pellets (representing intact Aβ) and the corresponding supernatants (representing degraded Aβ). 96.5±8.2% (mean±s.e.m., n=4 experiments, triplicate determinations) of the radioactivity found in the medium could be recovered in the TCA pellet and represented intact or oligomeric Aβ (not shown), when Aβ was pre-incubated with apoE.
The amount of TCA-precipitable radioactivity in the soluble fraction of cell lysates was compared to that in the total lysates, the ratio of which was typically about 0.8 to about 0.9 (not shown), to further verify that radioactivity was reduced in the media as a reflection of Aβ uptake by the cells, rather than due to non-specific binding to the extracellular surface of membranes or oligomerization/aggregation of Aβ.
In panel (a), Aβ uptake was measured in SY5Y cells following their treatment at 0 ng/ml, 100 ng/ml or 400 ng/ml leptin. Uptake also was measured in cells previously transfected with antisense DNA for PS1 as described (Tezapsidis et al., FASEB J. 17:1322-1324(2003)) (black). Uptake is expressed as the percentage of that observed with Aβ pre-incubated with apoε3 (medium gray) in the absence of leptin (first set of columns). […] Leptin induced a dose-dependent increase in Aβ uptake with a preference for apoε3 (medium gray) over apoε4 (light gray). In panel (b), SY5Y cells were pre-treated with […] cholesterol (+Chol) or normal medium (−Chol). Then Aβ uptake was measured following its preincubation with apoε3 (ε3) or apoε4 (ε4) in the absence (black) or the presence (gray) of about 400 ng/ml leptin. Cells were more resistant to taking-up Aβ when loaded with cholesterol. […] In panel (c), SY5Y cells were transiently transfected with SREBP-1 or SREBP-2 cDNA or an empty vector (Control). Then Aβ was measured in the medium by ELISAs (Figueiredo-Pereira et al., J Neurochem. 72:1417-22 (1999)) following treatment with (+) or without (−) leptin. […] In panel (d), Aβ uptake was measured in SY5Y cells prepared as in panel (c). Uptake was performed using Aβ/apoε3 complexes.

B1: Leptin: peptide hormone controlling adaptive metabolic mechanisms to energy availability; leptin (Harbor-UCLA) in vitro, recombinant murine leptin in mice (protein, UniProt P41160 22-167, looked up)
Leptin: VPIQKVQDDTKTLIKTIVTRINDISHTQSVSAKQRVTGLDFIPGLHPILSLSKMDQTLAVYQQVLTSLPSQNVLQIANDLENLRDLLHLLAFSKSCSLPQTSGLQKPESLDGVLEASLYSTEVVALSRLQGSLQDILQQLDVSPEC
uptake of apoE-Aβ (100 ng/ml or 400 ng/ml leptin, 24 h pre-incubation and uptake): increased the uptake of apoE-Aβ in a dose-dependent fashion
Aβ uptake phenotype of cholesterol-loaded cells (about 400 ng/ml leptin during cholesterol pre-incubation and during uptake): almost completely reversed
